The values that follow come from ChEMBL document CHEMBL1212772.

Compound in series [1]: C[C@@H](O)[C@H]1C(=O)N2C(C(=O)O)=C(SCCNC=N)C[C@H]12
Kind of series: (§1) Inhibition of Escherichia coli CMY-2 assessed as inhibition of nitrocefin hydrolysis.

Compound in series [2]: C[C@@H](O)[C@H]1C(=O)N2C(C(=O)O)=C(S[C@@H]3CN[C@H](C(=O)N(C)C)C3)[C@H](C)[C@H]12
Described as §1.

Substrate in series [3]: C[C@@H](O)[C@H]1C(=O)N2C(C(=O)O)=C(S[C@@H]3CN[C@H](CNS(N)(=O)=O)C3)[C@H](C)[C@H]12
Briefly: (§2) Kcat/Km ratio of Escherichia coli CMY-2.

Substrate in series [4]: O=C(Cc1cccs1)N[C@@H]1C(=O)N2C(C(=O)[O-])=C(C[n+]3ccccc3)CS[C@H]12
The series is described as §2.

Substrate in series [5]: CC(C)(O/N=C(\C(=O)N[C@@H]1C(=O)N2C(C(=O)[O-])=C(C[n+]3ccccc3)CS[C@H]12)c1csc(N)n1)C(=O)O
Described as §2.

Substrate in series [6]: O=C(Cc1cccs1)N[C@@H]1C(=O)N2C(C(=O)O)=C(/C=C/c3ccc([N+](=O)[O-])cc3[N+](=O)[O-])CS[C@H]12
The series is described as §2.

Substrate in series [7]: C[C@@H](O)[C@H]1C(=O)N2C(C(=O)O)=C(SCCNC=N)C[C@H]12
Described as §2.

Substrate in series [8]: C[C@@H](O)[C@H]1C(=O)N2C(C(=O)O)=C(S[C@@H]3CN[C@H](C(=O)N(C)C)C3)[C@H](C)[C@H]12
Described as §2.

Substrate in series [9]: CC1(C)S[C@@H]2[C@H](NC(=O)Cc3ccccc3)C(=O)N2[C@H]1C(=O)O
Described as §2.

Substrate in series [10]: C[C@@H](O)[C@H]1C(=O)N2C(C(=O)O)=C(S[C@@H]3CN[C@H](CNS(N)(=O)=O)C3)[C@H](C)[C@H]12
Briefly: (§3) Activity of Escherichia coli CMY-2.

Substrate in series [11]: O=C(Cc1cccs1)N[C@@H]1C(=O)N2C(C(=O)[O-])=C(C[n+]3ccccc3)CS[C@H]12
The description is as §3.

Substrate in series [12]: CC(C)(O/N=C(\C(=O)N[C@@H]1C(=O)N2C(C(=O)[O-])=C(C[n+]3ccccc3)CS[C@H]12)c1csc(N)n1)C(=O)O
Described as §3.

Substrate in series [13]: O=C(Cc1cccs1)N[C@@H]1C(=O)N2C(C(=O)O)=C(/C=C/c3ccc([N+](=O)[O-])cc3[N+](=O)[O-])CS[C@H]12
Described as §3.

Substrate in series [14]: C[C@@H](O)[C@H]1C(=O)N2C(C(=O)O)=C(SCCNC=N)C[C@H]12
The series is described as §3.

Substrate in series [15]: C[C@@H](O)[C@H]1C(=O)N2C(C(=O)O)=C(S[C@@H]3CN[C@H](C(=O)N(C)C)C3)[C@H](C)[C@H]12
The description is as §3.

Substrate in series [16]: CC1(C)S[C@@H]2[C@H](NC(=O)Cc3ccccc3)C(=O)N2[C@H]1C(=O)O
The series is described as §3.

Substrate in series [17]: C[C@@H](O)[C@H]1C(=O)N2C(C(=O)O)=C(S[C@@H]3CN[C@H](CNS(N)(=O)=O)C3)[C@H](C)[C@H]12
Kind of series: (§4) Kcat/Km ratio of Pseudomonas aeruginosa IMP-1.

Substrate in series [18]: O=C(Cc1cccs1)N[C@@H]1C(=O)N2C(C(=O)[O-])=C(C[n+]3ccccc3)CS[C@H]12
The series is described as §4.

Substrate in series [19]: CC(C)(O/N=C(\C(=O)N[C@@H]1C(=O)N2C(C(=O)[O-])=C(C[n+]3ccccc3)CS[C@H]12)c1csc(N)n1)C(=O)O
The description is as §4.

Substrate in series [20]: C[C@@H](O)[C@H]1C(=O)N2C(C(=O)O)=C(SCCNC=N)C[C@H]12
The series is described as §4.

Substrate in series [21]: C[C@@H](O)[C@H]1C(=O)N2C(C(=O)O)=C(S[C@@H]3CN[C@H](C(=O)N(C)C)C3)[C@H](C)[C@H]12
The series is described as §4.

Substrate in series [22]: CC1(C)S[C@@H]2[C@H](NC(=O)Cc3ccccc3)C(=O)N2[C@H]1C(=O)O
Described as §4.

Substrate in series [23]: C[C@@H](O)[C@H]1C(=O)N2C(C(=O)O)=C(S[C@@H]3CN[C@H](CNS(N)(=O)=O)C3)[C@H](C)[C@H]12
Briefly: (§5) Activity of Pseudomonas aeruginosa IMP-1.

Substrate in series [24]: O=C(Cc1cccs1)N[C@@H]1C(=O)N2C(C(=O)[O-])=C(C[n+]3ccccc3)CS[C@H]12
The description is as §5.

Substrate in series [25]: CC(C)(O/N=C(\C(=O)N[C@@H]1C(=O)N2C(C(=O)[O-])=C(C[n+]3ccccc3)CS[C@H]12)c1csc(N)n1)C(=O)O
Described as §5.

Substrate in series [26]: C[C@@H](O)[C@H]1C(=O)N2C(C(=O)O)=C(SCCNC=N)C[C@H]12
The description is as §5.

Substrate in series [27]: C[C@@H](O)[C@H]1C(=O)N2C(C(=O)O)=C(S[C@@H]3CN[C@H](C(=O)N(C)C)C3)[C@H](C)[C@H]12
Described as §5.

Substrate in series [28]: CC1(C)S[C@@H]2[C@H](NC(=O)Cc3ccccc3)C(=O)N2[C@H]1C(=O)O
The description is as §5.

B1: Beta-lactamase (Escherichia coli), Q53TY8 (protein)
chain: MMKKSLCCALLLTASFSTFAAAKTEQQIADIVNRTITPLMQEQAIPGMAVAVIYQGKPYYFTWGKADIANNHPVTQQTLFELGSVSKTFNGVLGGDAIARGEIKLSDPVTKYWPELTGKQWQGIRLLHLATYTAGGLPLQIPDDVRDKAALLHFYQNWQPQWTPGAKRLYANSSIGLFGALAVKPSGMSYEEAMTRRVLQPLKLAHTWITVPQNEQKDYAWGYREGKPVHVSPGQLDAEAYGVKSSVIDMARWVQANMDASHVQEKTLQQGIALAQSRYWRIGDMYQGLGWEMLNWPLKADSIINGSDSKVALAALPAVEVNPPAPAVKASWVHKTGSTGGFGSYVAFVPEKNLGIVMLANKSYPNPVRVEAAWRILEKLQ
Broadly, the Km is the substrate concentration at which the rate is half of its maximum. One may read the kcat/Km as the turnover number divided by the Michaelis constant. For orientation: kcat means the number of substrate molecules converted per active site and unit of time at saturation. For the protein B1, the Km stood at 0.31 µM in series [1]; 0.06 µM in [2]; 290 µM in series [11]; 4.5 µM in series [12]; 40 µM in [13]; 2.2 µM in series [16]. Also, the kcat/Km in [3] turned out to be 16000 M⁻¹ s⁻¹; in [4], 2.4e+06 M⁻¹ s⁻¹; in series [5] it was 780 M⁻¹ s⁻¹; in series [6] it was 4.3e+07 M⁻¹ s⁻¹; in series [7], 100000 M⁻¹ s⁻¹; in series [8], 1400 M⁻¹ s⁻¹. Besides, the kcat/Km in [9] amounted to 1e+07 M⁻¹ s⁻¹. In addition, the kcat in series [10] is 7.2e-05 s⁻¹; in series [11] it was 710 s⁻¹; in [12] it was 0.0035 s⁻¹; in series [13] it was 1700 s⁻¹; in series [14], below 0.031 s⁻¹; in series [15], 8.1e-05 s⁻¹. In [16], the kcat stood at 22 s⁻¹.

B2: Beta-lactamase IMP-1 (Pseudomonas aeruginosa), Q8G9Q0 (protein)
chain: MNSPKSRALLGFMGAFCLLLVAGAPLSAKSSDHVDLPYNLTATKIDSDVFVVTDRDFYSSNVLVAKMLDGTVVIVSSPFENLGTQTLMDWVAKTMKPKKVVAINTHFHLDGTGGNEIYKKMGAETWSSDLTKQLRLEENKKDRIKAAEFYKNEDLKRRILSSHPVPADNVFDLKQGKVFSFSNELVEVSFPGPAHSPDNVVVYFPKKKLLFGGCMIKPKELGYLGDANVKAWPDSARRLKKFDAKIVIPGHGEWGGPEMVNKTIKVAEKAVGEMRL
As to B2, the kcat/Km was found to be 3.7e+06 M⁻¹ s⁻¹ in [17]; 1.3e+07 M⁻¹ s⁻¹ in series [18]; 740000 M⁻¹ s⁻¹ in [19]; 5.8e+06 M⁻¹ s⁻¹ in series [20]; 4e+06 M⁻¹ s⁻¹ in series [21]; 2.5e+06 M⁻¹ s⁻¹ in [22]. Besides, the Km in series [23] was found to be 30 µM; in series [24], 21 µM; in series [25], 50 µM; in series [26], 33 µM; in series [27] it was 6.5 µM; in [28], 550 µM. Besides, the kcat was 110 s⁻¹ in series [23]; 270 s⁻¹ in series [24]; 37 s⁻¹ in series [25]; 190 s⁻¹ in series [26]; 26 s⁻¹ in [27]; 1400 s⁻¹ in series [28].
